Laboratory results published in US20230295597.

How the values were obtained:
[1] = molecular target: T1, native full length human ADAMTS-13 (wild type)
T1 chain: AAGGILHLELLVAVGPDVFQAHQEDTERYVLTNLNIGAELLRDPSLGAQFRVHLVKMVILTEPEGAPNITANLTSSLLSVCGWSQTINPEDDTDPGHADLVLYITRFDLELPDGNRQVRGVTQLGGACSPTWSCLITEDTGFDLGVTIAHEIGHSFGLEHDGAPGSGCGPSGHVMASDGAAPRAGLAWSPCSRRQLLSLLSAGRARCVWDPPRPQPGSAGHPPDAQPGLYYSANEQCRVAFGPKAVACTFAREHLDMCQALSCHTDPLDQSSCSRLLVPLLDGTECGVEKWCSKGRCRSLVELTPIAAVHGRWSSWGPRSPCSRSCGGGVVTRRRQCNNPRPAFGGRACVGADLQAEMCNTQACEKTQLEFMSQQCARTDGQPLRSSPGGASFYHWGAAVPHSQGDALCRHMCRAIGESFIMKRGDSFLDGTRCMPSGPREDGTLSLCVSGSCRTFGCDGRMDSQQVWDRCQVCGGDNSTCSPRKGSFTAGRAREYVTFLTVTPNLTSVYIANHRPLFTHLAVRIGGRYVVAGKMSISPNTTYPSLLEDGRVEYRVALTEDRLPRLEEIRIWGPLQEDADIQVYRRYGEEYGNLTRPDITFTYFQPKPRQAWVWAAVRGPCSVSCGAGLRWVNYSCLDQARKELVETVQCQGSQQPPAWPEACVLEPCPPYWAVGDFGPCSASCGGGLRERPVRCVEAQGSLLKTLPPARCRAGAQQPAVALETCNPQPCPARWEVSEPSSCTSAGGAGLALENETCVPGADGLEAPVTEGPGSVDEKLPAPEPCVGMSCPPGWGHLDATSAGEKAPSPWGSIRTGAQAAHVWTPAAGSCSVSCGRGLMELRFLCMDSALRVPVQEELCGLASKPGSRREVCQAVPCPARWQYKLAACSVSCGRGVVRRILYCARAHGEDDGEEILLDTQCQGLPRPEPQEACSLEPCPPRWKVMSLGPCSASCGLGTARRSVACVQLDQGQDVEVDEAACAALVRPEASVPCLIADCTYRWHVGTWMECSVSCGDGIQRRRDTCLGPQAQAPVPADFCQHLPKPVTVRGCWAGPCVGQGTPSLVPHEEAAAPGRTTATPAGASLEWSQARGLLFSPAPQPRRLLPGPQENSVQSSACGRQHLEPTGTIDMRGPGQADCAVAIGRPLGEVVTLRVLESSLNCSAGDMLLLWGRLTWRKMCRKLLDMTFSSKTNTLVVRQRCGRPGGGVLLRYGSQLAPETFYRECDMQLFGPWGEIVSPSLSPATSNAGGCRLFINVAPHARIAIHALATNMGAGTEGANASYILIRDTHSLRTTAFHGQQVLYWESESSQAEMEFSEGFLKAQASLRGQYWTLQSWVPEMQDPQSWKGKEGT

[2] = molecular target: T2, trADAMTS-13^V313A (truncated ADAMTS-13 mutant, Val313 to Ala)
T2 chain: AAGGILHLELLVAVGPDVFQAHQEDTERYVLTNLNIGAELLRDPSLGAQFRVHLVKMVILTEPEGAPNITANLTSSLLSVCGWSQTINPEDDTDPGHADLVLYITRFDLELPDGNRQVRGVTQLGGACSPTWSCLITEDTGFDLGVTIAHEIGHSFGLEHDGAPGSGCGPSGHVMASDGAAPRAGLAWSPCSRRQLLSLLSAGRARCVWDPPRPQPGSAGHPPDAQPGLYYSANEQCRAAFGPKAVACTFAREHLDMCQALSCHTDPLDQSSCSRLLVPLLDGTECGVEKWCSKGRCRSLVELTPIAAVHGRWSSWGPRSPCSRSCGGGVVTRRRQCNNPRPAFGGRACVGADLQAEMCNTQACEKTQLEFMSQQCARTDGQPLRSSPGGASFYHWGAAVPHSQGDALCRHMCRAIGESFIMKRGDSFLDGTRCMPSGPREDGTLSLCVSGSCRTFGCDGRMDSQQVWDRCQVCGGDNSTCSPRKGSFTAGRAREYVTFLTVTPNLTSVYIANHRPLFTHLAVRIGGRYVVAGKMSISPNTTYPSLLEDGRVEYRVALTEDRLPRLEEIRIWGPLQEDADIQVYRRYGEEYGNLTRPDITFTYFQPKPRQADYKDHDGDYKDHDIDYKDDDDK

[3] = molecular target: T3, trADAMTS-13^R312K (truncated ADAMTS-13 mutant, Arg312 to Lys)
T3 chain: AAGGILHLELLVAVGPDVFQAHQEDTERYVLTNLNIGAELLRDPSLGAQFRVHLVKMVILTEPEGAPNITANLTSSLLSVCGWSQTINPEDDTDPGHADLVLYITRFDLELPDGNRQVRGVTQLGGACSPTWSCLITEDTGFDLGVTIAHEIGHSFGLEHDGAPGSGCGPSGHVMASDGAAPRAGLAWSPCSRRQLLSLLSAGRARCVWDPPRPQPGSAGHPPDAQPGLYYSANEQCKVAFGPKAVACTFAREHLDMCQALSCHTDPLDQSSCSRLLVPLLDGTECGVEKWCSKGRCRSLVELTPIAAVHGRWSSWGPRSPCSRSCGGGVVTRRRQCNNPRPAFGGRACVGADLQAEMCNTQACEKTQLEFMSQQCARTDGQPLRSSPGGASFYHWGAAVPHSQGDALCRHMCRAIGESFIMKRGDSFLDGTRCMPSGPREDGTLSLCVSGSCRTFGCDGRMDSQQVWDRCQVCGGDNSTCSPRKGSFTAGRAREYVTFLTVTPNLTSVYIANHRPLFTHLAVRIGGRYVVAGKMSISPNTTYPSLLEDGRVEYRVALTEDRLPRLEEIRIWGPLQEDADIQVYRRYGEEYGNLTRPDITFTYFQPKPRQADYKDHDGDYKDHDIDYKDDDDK

B1: tissue plasminogen activator (tPA) (protein)
chain: SYQVICRDEKTQMIYQQHQSWLRPVLRSNRVEYCWCNSGRAQCHSVPVKSCSEPRCFNGGTCQQALYFSDFVCQCPEGFAGKCCEIGNSDCYFGNGSAYRGTHSLTESGASCLPWNSMILIGKVYTAQNPSAQALGLGKHNYCRNPDGDAKPWCHVLKNRRLTWEYCDVPSCSTCGLRQYSQPQFRIKGGLFADIASHPWQAAIFAKHRRSPGERFLCGGILISSCWILSAAHCFQERFPPHHLTVILGRTYRVVPGEEEQKFEVEKYIVHKEFDDDTYDNDIALLQLKSDSSRCAQESSVVRTVCLPPADLQLPDWTECELSGYGKHEALSPFYSERLKEAHVRLYPSSRCTSQHLLNRTVTDNMLCAGDTRSGGPQANLHDACQGDSGGPLVCLNDGRMTLVGIISWGLGCGQKDVPGVYTKVTNYLDWIRDNMRP
Q: B1 was tested. Which “ADAMTS-13 activity with or without preincubation with tPA (technozym kit)” value [1] did it give?
A: the activity of both trADAMTS-13 and ADAMTS-13 WT was reduced in the presence of tPA (FIG. 4B)

Q: What about the “residual proteolytic activity on vWF after 6 hours with or without tPA” value [2] of the same protein?
A: tPA inhibited the proteolytic activity of trADAMTS-13^R312A and trADAMTS-13^V313A variants on vWF (FIG. 8)

Q: What about the “cleavage by tPA (Western blot) and residual proteolytic activity on vWF over time” value [3] of the same protein?
A: trADAMTS-13^R312K was resistant to cleavage by tPA under conditions where trADAMTS-13 was proteolyzed completely (FIG. 7A) and lost its catalytic activity (FIG. 7B)

Q: And the “residual proteolytic activity on vWF after 6 hours with or without tPA” value [3]?
A: trADAMTS-13^R312K and trADAMTS-13^V313D variants were resistant to inactivation by tPA
